Data published in a protein production outcome set (Wang et al. 2014).

Assay: label from the status in PepcDB records

Row | Sequence | protein production
1 | PIKMGWLKKQRSIVKNWQQRYFVLRAQQLYYYKDEEDTKPQGCMYLPGCTIKEIATNPEEAGKFVFEIIPASWDQNRMGQDSYVLMASSQAEMEEWVKFLRRVAG | not failed
2 | FATTDDVILLWRQLSVDEIKRAEALLETVSDTLRLEASKVGKNLDEMILETPYFATVLKSVTVDIVARTLMTATQGEPMSQESQSALGYTWSGTYLVPGGGLFIKDSELKRLGLKKQRYGGI | failed
3 | MTQSPDITAKSWAMVATLGFVWGGTFLINELALEGITPFWLAAGRVCFGALLSTLVWRAMGGRLFSAPLSGSERLSLVIIALLSSAVPFSLIAWGQQYVTAGFTGVSMASIALMVLPLAHFFVPGERMTWRRALGFAIGFAGVALLMGAQAFESSGAALELPGRLACLAATACYAVASILMRRLPAVDPMGLSTVLLLIGVVAVLPMAWIAEGPPPSTDLRTLGLIVFLGMVPTAAANLLRVTLIRSAGPVFMSLTNYQVPIWSVLLGAALLGEPLPPVLLWSLLLILGGVGLSQYGALRRLFTRQ | failed
4 | MSLHPHAMPDMGPDMNKVPWMGDEQIAMLVYPGMTVMDLVGPHCMFGSLMGAKIYIVAKSLDPVTSDAGLAIVPTATFGTCPRDLTVLFAPGGTDGTLAAASDAETLAFMADRGARAKYITSVCSGSLILGAAGLLKGYKATSHWSCRDALAGFGAIPTEARVVRDRNRITGAGVTAGLDFGLSMVAELRDQTYAECAQLMSEYDPDPPFNAGSMKTAPAHVRTAMIELVAEFTKKADALAGFPKEGHHHHHH | not failed
5 | MKIACVVLTYNRLSLLKRCIDSIRNQTYQEFDIYVIDNASTDGTAHWLSLQNDLTVISIHENKGPANGFYTCLQVPYDDGYDWIWMMDDDGVADKGQLEELLNKTVKNNLYFTNALVCNIDNPEKIAFGAKKTIDTQREELIKGNINPFNGTFIHRRVIEKNGNIMREMYMYGCETEYQLRAIKNGFQVATVTSAIHYHPSPKVSICHLIPYIKYCSIIDYPIDTLFYIRNKAYINYTYLGFKRSLFMITSYSLYYLFRLKIRKVLLFWKYYREGCKGVVGNKKQLEHHHHHH | not failed
6 | MKHYSHGIDGLRSGLSPSAKPFAIGSSSSPAFSLKSEHEDSIWGDYTLDLSFLSSDDQRSGLDDDDSLSNLSRDVETNKEGLVLEEKIASSGKVLVNPNPSFSKLPEVLMKSSDVVGDAKLGLSCVSEKSSTESDLDESEEDSPCWKGMLSHKSLASGTKSMTSRRSTDDLSGFRKLNPLAPQFIPSSSKKKLETDGEKCEETSSSSLKKSLSSTFPSSSGEFDLTDPPLEDGRNDAAEKTSILTHNADEILGFVTSDSVSKTVSMLDSRNEFQPSKRLDPLAPVFVPSSAKLGPSVHEKLGDFVVNAYSTSALASSHVKSLDKGKVVTSSGEVGHSFKSQYGGHDFGSTSSYGPWIESEVGITEYAKLGSSNKSQGQRRLNPLARQFSLADAKQKPYGYGKNQAADDLSLVVNTSGLYIPARYREDHNVVDADLAQSSVNVERFLPNMSHGGSSLITPKADSNFGSTKWIAVEPNPTFSVKGNRDFKHHLPFHVVETAASSSTSDMKALPGPSPKMDVKKLLTTMHGLSELLTLAHGSESSDSPNAEELDLINSTVQNLNLYIQNNSQEHAGNQSVAQYNSYDLKLLPNKSKLSIRDHQFPTANNMTVDLDVKRKDKYSVVSRETVPGSRSYQYGATEDNGFGQVVPTNGYQQHQGVEQINQNALFYKSLWLKAEADRCLMVYETSLSNPYP | failed
7 | MVSNGSIIHVNQNQFMMLVDGGKIVDYTAEPGYFKVENSASPSLFGGQFGDALKETFSRFKFGGTTPMKQEVFYVNLQEIKGIKFGTPNPLQYFDNFYNAELFLRTFGNYSIKITDPIKFFKEACPRDAENVHIDEINEQYLSEFLEALQAAISQMSMEGERISFIPSKGTVLSKHMSEILDDSWKELRGMEVLSVGIASISYDDESKELINMRNKGAMLGDPGVREGYVQGSIARGMEAAGSNQAGAGMAFMGMGMGMNAAGGFMGQASQTNMQQMQMNQAAQRAAQGAGQQQGAGAKAAGEWFCTECGHKNTGKFCAECGTPKPQGSGCPSCGAELKAGAKFCPECGTKLLEHHHHHH | not failed
8 | NNVIGALCVFQDISELVGIKELNERFQKILETSHDLICFIDENRKISYINPTYEKCLNIKSEDVLGKDLMKISPD | failed
9 | YLDLWQTQDAKIRAKLAAVFQAEQNLNEAAIAYCLARALPEETAIFFANSMVVRYAEFFWQLNDQQILPYFNRGANGIDGTLSTALGIAENHSPAVLLTGDLALLHDINGFLTLSKFTGSLTIIVINNQGGGIFEMLPIAEEKDIFEDYFATPQTVEFSKVCDLYGIEYQAIQTKADLMQTCAILPPRGVRLLEVKTNRNQAMTWLKDLFQ | failed
10 | MAKWRVAAILSGALLAADARAEALRMLLTQIPGIIEQAPDGASMRGVGIDLMKEVGRRAGVELRFEAYPQARARLLVERQRDACLPVAHLPEQAANFKWSAPLLQMRLVLLARGDDGRQLRSLEQAGGLRVGAMRGTMAAARLKERGVAVEESADYLSGLEKLRLGRLDLWAMLDVGVASLARRLEMPPPRVAWVMDTLDVSFACNRQVDDALIARLDGAIAAMRADGSMARFDLR | failed
11 | NKIPTTMAFRTVTDVDNAVNGLYDLMSGSGYYGAAMFAYGDMKGDDMQSSEESGVCNTCYMFNHRPNSLNAGSLWGRPFYILREAWNILNAIAEGKIESGDEKKLNALKGETMAVIALCQFDLTRCFGYPYTKDKGASLGAPLIDHLVGTYENPPRSTVAQAYDFIIETLEEAVTLMSEEKNNGRMNKYAARALLARIYLYHDDNRKAFDLADQLIKDADTSGSYALYPHEKYVAAWSVEAKFGSESFFEIANSVDDTPGRDSWGYLLNWYGYQKGFVTQKYAEQMLADPGDVRGHLLEENKYAGKTVWWLYKLRGTDLKTAPLECNNVVLRLSEVYLIAAEAGCKLGGDAAVQGLGYLNEIVKRGNPDNEVTMADYTLDRVLDERSKELVGEGHRFFDLLRNGKTIVRKGGYHLPSVDEEVDWDFYKCVLPIPEDQFIFSPEMEQNPGYPKN | not failed
12 | LLTSQIVDQYAEHIFYNSGAVGMALVVIDNNQVVNRSFGETQPGNNIRPRPDSLIRIASITKLMTSEIMVKLADDGIVKLTDPLKKYAPKGVNVPSYSAKQPIRLLHLASHTSGLPREQPGGPQKRPVFTWPTKDNRWQWLKLAKVTVPPGVKAAYSNLAYDLLADALSRAAGKPYAHLLRDKITAPLGMKNTTLTPTAEQCKRLMIGVGSSRCGNTVAAAGSGGIYSTPEDMQHWMQQFLASDNSAPKRSAKREQALYFQRGDLVSLKGMDVAGQADALGLGWVYMAPKADLPGIMQKTGGGGGFITYMAMVPEKNIGVFVVVTRSQLTKFSNMSDGVNQLVAELVK | not failed
13 | MAETSIEWTDVTWNPVAGCTVLTAGCTNCYAMRMAARLEAMGVEKYAGLTRKSGGRAKWTGRIFLDRKALSIPASWSKPRRVFVNSMSDLFHSDVPTDFISDVWKVMAQTPRHTYQILTKRPDRMVEIVPGLAKLRNVWLGTSVEDARVIYRIDKLRQVPAAVRFVSFEPLIGSVSGAGLRNIHWAIVGGESGPKARSMDPAWVDEIESMCRDQGAAFFFKQWGGKNKKAAGRTLNGRLYDEMPAPSMP | failed
14 | MEGITYMNLGTNDKLPKLNTHYSSLSKRLMASFFDNVIISALSYLLSIIIFIIMTIFSFRYLDEFINHIYLIYFSLHFLVAFFYYITMESSSFQGTLGKLIADIKVVKLNGDKVSIFQAFCRFFIANILLYPAYFFYALVLYNVSNQIIINHSCNPYKINSFYFYGLISSSLIYLIYKLVMLITILISNKKQGIHDILIKTLVIIR | failed
15 | MKKFPELRKYTNPVWVRLVILCQKKLKVCFIMFIVMSISTSAEIYYEEAEEFLSKGDLVQACEKYYKAAEEAIKLLVIENNLKEIINEAEEHGWDSKTLNDAVTELSYKLGDNIIDMWASAVTLFTARKFMDKDLIENYKKDIKTLIEEAKQRFSIKVLKLEHHHHHH | failed
16 | MSLKSIEVVAAVIRLGEKYLCVQRGQTKFSYTSFRYEFPGGKVEEGESLQEALQREIMEEMDYVIEVGEKLLTVHHTYPDFEITMHAFLCHPVGQRYVLKEHIAAQWLSTREMAILDWAEADKPIVRKISEQEGHHHHHH | not failed
